# Legend:
# [1] = system: murine embryonic fibroblasts (MEFs); test: unidirectional 45Ca2+ flux, IP3-induced efflux; format: cell-based; conditions: in the presence of thapsigargin
# From the text: The conclusion that peptide 2 acts directly on the Bcl-2-IP3R interaction is supported not only by experiments described above (FIG. 5) in which peptide 2 reversed Bcl-2-mediated inhibition of IP3R channel opening in vitro, but also by unidirectional ^45Ca^2+ flux experiments that allow for very accurate quantification of Ca^2+ release through IP3Rs located on the ER. These experiments require firmly adherent cells, and therefore murine embryonic fibroblasts (MEFs), which have a somewhat lower level of endogenous Bcl-2 than Jurkat cells, were employed. The rate of IP3-induced ^45Ca^2+ efflux was measured in the presence of thapsigargin, which completely prevents ER Ca^2+ reuptake.
# [2] = system: primary chronic lymphocytic leukemia cells; test: cell killing by trypan blue dye exclusion, combination with ABT737; format: cell-based; conditions: primary CLL cells, peptide combined with ABT737, 24 hours
# From the text: FIG. 10 illustrates a graph comparing the cell death percentage of chronic lymphocytic leukemia cells treated with combinations of ABT-737 and a peptide comprising SEQ ID NO: 3 and controls.
# FIG. 11 illustrates a graph comparing the cell death percentage of chronic lymphocytic leukemia cells treated with ABT-737, a peptide comprising SEQ ID NO: 3, combinations thereof, and controls.
# To test this hypothesis, we performed the experiments summarized below. […] Additions were made to CLL cells and cell death measured 24 hours later.
# Bcl-2-IP3R interaction [3] = target: T1, Bcl-2-IP3R interaction (Homo sapiens, UniProt P10415); test: GST pull-down of Bcl-2 from Bcl-2(+) WEHI7.2 extracts with GST-IP3R domain 3; format: binding, mouse; parameters: expressed in transfected cells; host or cells: Bcl-2(+) WEHI7.2 cells (source of Bcl-2)
# T1 sequence (P10415 whole entry, the tested form may be a part): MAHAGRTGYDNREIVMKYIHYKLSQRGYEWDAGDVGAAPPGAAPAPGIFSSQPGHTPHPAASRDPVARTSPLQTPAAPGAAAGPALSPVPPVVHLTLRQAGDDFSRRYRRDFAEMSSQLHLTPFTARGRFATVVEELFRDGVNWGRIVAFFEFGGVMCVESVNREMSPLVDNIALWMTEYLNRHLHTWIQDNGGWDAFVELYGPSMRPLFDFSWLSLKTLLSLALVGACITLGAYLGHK
# From the text: To identify where Bcl-2 interacts on the IP3R, we used a series of GST-IP3R fusion constructs corresponding to five fragments covering the first N-terminal 2216 amino acids and 1 fragment corresponding to the last 160 amino acids of mouse IP3R type 1 (FIG. 3). These fragments are located in the cytoplasm and coincide with “natural” domains generated by limited proteolysis. The transmembrane domain was not included. After purification, fragments migrated as single prominent bands corresponding to their expected molecular weights, although some minor degradation products were detected.
# The first set of GST pull-down experiments utilized extracts of Bcl-2(+) WEHI7.2 cells and Jurkat cells as two independent sources of Bcl-2. Cell extracts were incubated with GST-IP3R fragments prebound to glutathione sepharose resin, with equal loading of the GST-IP3R fragments. […] These experiments were repeated a total of five times with the same result. It is important to note that, following incubation of cell extracts with GST-IP3R fragments on the glutathione sepharose resin, the resin was washed extensively.
# Since the IP3R binding region was narrowed down to the 80 amino acid subdomain 3a1 (aa 1347-1426), we designed two 20 amino acid peptides (peptide 1, aa 1365-1384 (SEQ ID NO:2); peptide 2, aa 1389-1408 (SEQ ID NO:3)) based on the degree of homology in this region among different IP3R isoforms. Also, preference was given to regions that have beta-turn and/or α-helical structures, rather than random-coil or nonstructured sequences, expecting that one or both of the peptides could inhibit the Bcl-2-IP3R interaction. Furthermore, the C-terminal region of domain 3a1 was not selected because of its lower accessibility and unpredictable secondary structure (Invitrogen PeptideSelect Design Tool). The scrambled sequence of peptide 2 was also synthesized and used as a control. […] The inhibitory effect of peptide 2 on Bcl-2-IP3R interaction was also detected in coimmunoprecipitation assays employing both Bcl-2(+) WEHI7.2 cells (FIGS. 4A and 4B) and Jurkat cells (FIG. 4C). […]
# Bcl-2-IP3R interaction [4] = target: T1, Bcl-2-IP3R interaction; test: coimmunoprecipitation of Bcl-2 with IP3R from cell extracts; format: binding; parameters: expressed in transfected cells; host or cells: Bcl-2(+) WEHI7.2 cells; also Jurkat cells (endogenous Bcl-2); conditions: 400 μM peptide; Bcl-2(+) WEHI7.2 and Jurkat cell extracts
# Description: FIG. 4 illustrates an IP3R Peptide Inhibits Bcl-2-IP3R Interaction but Not Bim-Bcl-2 Interaction. (A and D) IP3R was immunoprecipitated from extracts of Bcl-2(+) WEHI7.2 cells (C) or Jurkat cells in the presence of 400 μM peptides. Peptide 2, but not peptide 1 or control peptide, inhibited the Bcl-2-IP3R coimmunoprecipitation. Summary of Bcl-2 immunoblot signal intensities in three […] experiments identical to (C) (mean±SEM). (B) Bcl-2 was immunoprecipitated from Bcl-2(+) WEHI7.2 cell extracts in the presence of 400 μM peptides, and coimmunoprecipitation of Bim was detected by anti-Bim immunoblotting. […] (E) Summary of Bim immunoblot signal intensities in three experiments identical to (B) (mean±SEM).
# Since the IP3R binding region was narrowed down to the 80 amino acid subdomain 3a1 (aa 1347-1426), we designed two 20 amino acid peptides (peptide 1, aa 1365-1384 (SEQ ID NO:2); peptide 2, aa 1389-1408 (SEQ ID NO:3)) based on the degree of homology in this region among different IP3R isoforms. […] The inhibitory effect of peptide 2 on Bcl-2-IP3R interaction was also detected in coimmunoprecipitation assays employing both Bcl-2(+) WEHI7.2 cells (FIGS. 4A and 4B) and Jurkat cells (FIG. 4C). […]
sequence,measurement,setting,value
"NVYTEIKCNSLLPLDDIVRV (listed as Homo sapiens) [peptide 2, 20 amino acid peptide, aa 1389-1408 of IP3R subdomain 3a1]",rate of IP3-induced 45Ca2+ efflux,[1],significantly increased
same,cell death induction by ABT737,[2],enhances cell death induction
same,amount of Bcl-2 bound to GST-IP3R domain 3,Bcl-2-IP3R interaction [3]; 200 μM peptide,significantly decreased
same,amount of Bcl-2 bound to GST-IP3R domain 3,Bcl-2-IP3R interaction [3]; 1 mM peptide,significantly decreased
same,inhibition of Bcl-2-IP3R coimmunoprecipitation,Bcl-2-IP3R interaction [4],consistently inhibited
